Assay results published in patent US20230064978A1, “CYCLIC PEPTIDE RECEPTOR LANTHIONINE SYNTHETASE C-LIKE PROTEIN (LANCL) AND USES THEREOF” (LATERAL IP PTY LTD, priority 2019, published 2023).
Bridges are numbered along the chain shown (N, C = ends). Where no end group is shown, it is not given here.

Tests used:
human recombinant LANCL2 = biological target: T1, human recombinant LANCL2 (Homo sapiens, UniProt Q9NS86); test: In-gel fluorescence: photolabelling of recombinant LANCL2 with PAL probe, with or without excess LAT8881; format: binding
T1 construct: human recombinant LANCL2 (amino acid residues 1-450); GST (N); purchased ABCAM ab163277; host or cells: wheat germ
T1 sequence (Q9NS86 1-450): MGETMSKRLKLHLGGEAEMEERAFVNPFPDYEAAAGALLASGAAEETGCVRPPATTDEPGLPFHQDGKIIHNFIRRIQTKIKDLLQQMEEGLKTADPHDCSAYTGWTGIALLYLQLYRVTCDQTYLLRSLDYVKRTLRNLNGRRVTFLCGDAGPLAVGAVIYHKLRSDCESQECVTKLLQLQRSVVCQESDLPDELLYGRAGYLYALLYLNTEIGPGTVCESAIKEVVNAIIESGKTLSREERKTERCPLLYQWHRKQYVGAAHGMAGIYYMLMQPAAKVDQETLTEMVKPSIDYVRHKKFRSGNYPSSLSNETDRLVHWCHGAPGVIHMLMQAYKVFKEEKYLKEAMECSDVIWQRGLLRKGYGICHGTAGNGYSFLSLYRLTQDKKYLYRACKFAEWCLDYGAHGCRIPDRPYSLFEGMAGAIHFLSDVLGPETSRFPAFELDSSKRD
Experimental: (§1) An in-gel fluorescence protocol was followed to determine whether the cyclic peptides bound to LANCL2 and LANCL3. Briefly:
(§2) 1. LANCL2 and LANCL3 Labelling, Assay on 96 Well Plate, Volume of the Reaction 40 μl in PBS
• 1 μg/well of human recombinant LANCL2 (amino acid residues 1-450; ABCAM catalog no. ab163277, ˜0.07 mg/ml; expressed in wheat germ and incorporating an N-terminal GST tag; UniProt Accession no: Q9NS86);
• Vehicle DMSO • ±LAT8881 (a cyclic peptide fragment of human growth hormone; SEQ ID NO:1) • SEQ ID NO:1 as competitor @ 50, 100 or 200 μM, pre-incubation 10 min, 4 μl of a stock solution 10-fold concentrated • ±LAT9991-PAL probes @ 1 μM, incubation 30 min at room temperature on a plate agitator (protected from light), 4 μl of a stock solution @10 μM
(§3) • Irradiation @ 365 nm 20 min (4° C., on a support containing ice) • Transfer 40 μl in a clean Eppendorf tube
(§4) • Reduction: DTT 10 mM, 30 min @ 56° C. • Alkylation: Iodoacétamide 30 mM, 45 min @ RT Click-iT AzideTamra of 60 μL samples
(§5) • Acetone Precipitation −20° C. ON • Dry pellet resuspended in 30 μL 1% SDS in 50 mM Tris-HCl pH 7.5 • Photolabeled LANCL1 was tagged with tetramethylrhodamine (TAMRA) azide @100 μM TAMRA azide by copper click chemistry using the Click-iT Protein Reaction Buffer Kit (ThermoFisher Scientific) for 30 minutes • Precipitation using the chloroform-methanol method, pellet was air-dried for 10 min at room temperature, resuspended in 30 μL SDS loading buffer (Bio Rad XT Sample Buffer containing 2.5% v/v 2-mercaptoethanol) and heated (60° C., 30 min)
(§6) • SDS-PAGE (4-15% Criterion™ TGX Stain-Free™ Protein Gel, Bio Rad) • Analyzed by in-gel fluorescence scanning using a ChemiDoc™ MP Imaging System (Bio Rad) with a green LED light as an excitation source and a BP600/20 nm emission filter

human recombinant LANCL3 = biological target: T2, human recombinant LANCL3 (Homo sapiens, UniProt Q6ZV70); test: In-gel fluorescence: photolabelling of recombinant LANCL3 with PAL probe, with or without excess LAT8881; format: binding
T2 construct: human recombinant LANCL3 (amino acid residues 1-420); 10xHis (N); Myc (C); purchased ABCAM ab163277; host or cells: E. coli
Experimental: as §1, §2
• […] of human recombinant LANCL3 (amino acid residues 1-420; ABCAM catalog no. ab163277, ˜0.07 mg/ml; expressed in E. Coli and incorporating an N-terminal 10×His tag and a C-terminal Mvc tag; UniProt Accession no: Q6ZV70);
• Vehicle DMSO • ±LAT8881 (a cyclic peptide fragment of human growth hormone; SEQ ID NO:1) • SEQ ID NO:1 as competitor @ 50, 100 or 200 μM, pre-incubation 10 min, […], incubation 30 min at room temperature on a plate agitator (protected from light), 4 μl of a stock solution @10 μM
as §3, §4, §5, §6

[1] = in-gel fluorescence after UV cross-linking
[2] = probe LAT9991-PAL, excess LAT8881

T2 sequence (Q6ZV70 whole entry, the tested form may be a part): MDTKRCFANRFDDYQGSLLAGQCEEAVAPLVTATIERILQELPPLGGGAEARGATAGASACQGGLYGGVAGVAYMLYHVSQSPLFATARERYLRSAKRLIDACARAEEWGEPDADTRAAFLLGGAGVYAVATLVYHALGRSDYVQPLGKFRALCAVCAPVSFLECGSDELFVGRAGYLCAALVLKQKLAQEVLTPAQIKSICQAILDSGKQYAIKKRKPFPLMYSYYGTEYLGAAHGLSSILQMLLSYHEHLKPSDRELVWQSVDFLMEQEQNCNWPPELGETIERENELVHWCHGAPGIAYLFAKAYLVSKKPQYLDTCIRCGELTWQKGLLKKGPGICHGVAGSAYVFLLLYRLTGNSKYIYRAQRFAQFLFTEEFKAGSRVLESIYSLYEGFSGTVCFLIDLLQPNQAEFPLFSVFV

Binding of PAL probe to recombinant LANCL2 (human recombinant LANCL2; [1]) | Binding of PAL probe to recombinant LANCL3 (human recombinant LANCL3; [1]) | Substance | Inhibition of LAT7771-PAL binding to recombinant LANCL2 by excess competitor (human recombinant LANCL2; probe LAT7771-PAL (as in FIG. 10 legend), excess LAT8881) | Inhibition of LAT9991-PAL binding to LANCL2 by excess competitor (human recombinant LANCL2; [2]) | Inhibition of LAT9991-PAL binding to LANCL3 by excess competitor (human recombinant LANCL3; [2]) | Inhibition of LAT9993-PAL binding to recombinant LANCL3 by excess competitor (human recombinant LANCL3; probe LAT9993-PAL (as in FIG. 11 legend), excess LAT8881)
binds | binds | LAT9991-PAL: cyclic peptide of SEQ ID NO:12 (LAT9991) conjugated to the PAL (Photo-Activated Labelling) grouping (CRSVEGSCG; disulfide 1-8 (inferred); also: PAL group on N-terminal Cys-Arg part) |  |  |  | 
 |  | YLRIVQCRSVEGSCGF [LAT8881, a cyclic peptide fragment of human growth hormone] | inhibited | inhibited | inhibited | inhibited
